Assay results published in patent publication US12630600B2 (MEDIMMUNE LIMITED, priority 2022, dated 2026).
Starred links: 1 amine or outer side, 2 acyl side, 3 side chain; linkers in the order of their positions; H or OH if unused. Non-standard residues stand in square brackets, D forms with d. Groups on a side chain read outwards from the residue. No end group written: not given here. *: point of attachment. C20 diacid = O=C(O)CCCCCCCCCCCCCCCCCCC(=O)*; C18 diacid = O=C(O)CCCCCCCCCCCCCCCCC(=O)*; γGlu = O=C(O)[C@H](CCC(=O)[*:2])N[*:1]; αMeF = C[C@](N)(Cc1ccccc1)C(=O)O; AEEA = NCCOCCOCC(=O)O; Aib = CC(C)(N)C(=O)O

B1: Peptide 451 (peptide)
peptide: H[Aib]QGTFTSDVSK[αMeF]LDKK([AEEA-AEEA-γGlu-C20 diacid])RARDFVLWLL[Aib]E-NH2
modifications: N-terminus assumed
SMILES: CC(C)C[C@H](NC(=O)[C@H](Cc1c[nH]c2ccccc12)NC(=O)[C@H](CC(C)C)NC(=O)[C@@H](NC(=O)[C@H](Cc1ccccc1)NC(=O)[C@H](CC(=O)O)NC(=O)[C@H](CCCNC(=N)N)NC(=O)[C@H](C)NC(=O)[C@H](CCCNC(=N)N)NC(=O)[C@H](CCCCNC(=O)COCCOCCNC(=O)COCCOCCNC(=O)CC[C@H](NC(=O)CCCCCCCCCCCCCCCCCCC(=O)O)C(=O)O)NC(=O)[C@H](CCCCN)NC(=O)[C@H](CC(=O)O)NC(=O)[C@H](CC(C)C)NC(=O)[C@](C)(Cc1ccccc1)NC(=O)[C@H](CCCCN)NC(=O)[C@H](CO)NC(=O)[C@@H](NC(=O)[C@H](CC(=O)O)NC(=O)[C@H](CO)NC(=O)[C@@H](NC(=O)[C@H](Cc1ccccc1)NC(=O)[C@@H](NC(=O)CNC(=O)[C@H](CCC(N)=O)NC(=O)C(C)(C)NC(=O)[C@@H](N)Cc1c[nH]cn1)[C@@H](C)O)[C@@H](C)O)C(C)C)C(C)C)C(=O)N[C@@H](CC(C)C)C(=O)NC(C)(C)C(=O)N[C@@H](CCC(=O)O)C(N)=O
B2: Peptide 454 (peptide)
peptide: H[Aib]QGTFTSDVSK[αMeF]LDKK([AEEA-AEEA-γGlu-C20 diacid])RAQDFVRWLEA[Aib]G-NH2
modifications: N-terminus assumed
SMILES: CC(C)C[C@H](NC(=O)[C@H](Cc1c[nH]c2ccccc12)NC(=O)[C@H](CCCNC(=N)N)NC(=O)[C@@H](NC(=O)[C@H](Cc1ccccc1)NC(=O)[C@H](CC(=O)O)NC(=O)[C@H](CCC(N)=O)NC(=O)[C@H](C)NC(=O)[C@H](CCCNC(=N)N)NC(=O)[C@H](CCCCNC(=O)COCCOCCNC(=O)COCCOCCNC(=O)CC[C@H](NC(=O)CCCCCCCCCCCCCCCCCCC(=O)O)C(=O)O)NC(=O)[C@H](CCCCN)NC(=O)[C@H](CC(=O)O)NC(=O)[C@H](CC(C)C)NC(=O)[C@](C)(Cc1ccccc1)NC(=O)[C@H](CCCCN)NC(=O)[C@H](CO)NC(=O)[C@@H](NC(=O)[C@H](CC(=O)O)NC(=O)[C@H](CO)NC(=O)[C@@H](NC(=O)[C@H](Cc1ccccc1)NC(=O)[C@@H](NC(=O)CNC(=O)[C@H](CCC(N)=O)NC(=O)C(C)(C)NC(=O)[C@@H](N)Cc1c[nH]cn1)[C@@H](C)O)[C@@H](C)O)C(C)C)C(C)C)C(=O)N[C@@H](CCC(=O)O)C(=O)N[C@@H](C)C(=O)NC(C)(C)C(=O)NCC(N)=O
B3: Peptide 462 (peptide)
peptide: H[Aib]QGTFTSDVSK[αMeF]LDTK([AEEA-AEEA-γGlu-C18 diacid])RARDFVQWLLEAG-OH
modifications: N-terminus assumed
SMILES: CC(C)C[C@H](NC(=O)[C@H](CC(C)C)NC(=O)[C@H](Cc1c[nH]c2ccccc12)NC(=O)[C@H](CCC(N)=O)NC(=O)[C@@H](NC(=O)[C@H](Cc1ccccc1)NC(=O)[C@H](CC(=O)O)NC(=O)[C@H](CCCNC(=N)N)NC(=O)[C@H](C)NC(=O)[C@H](CCCNC(=N)N)NC(=O)[C@H](CCCCNC(=O)COCCOCCNC(=O)COCCOCCNC(=O)CC[C@H](NC(=O)CCCCCCCCCCCCCCCCC(=O)O)C(=O)O)NC(=O)[C@@H](NC(=O)[C@H](CC(=O)O)NC(=O)[C@H](CC(C)C)NC(=O)[C@](C)(Cc1ccccc1)NC(=O)[C@H](CCCCN)NC(=O)[C@H](CO)NC(=O)[C@@H](NC(=O)[C@H](CC(=O)O)NC(=O)[C@H](CO)NC(=O)[C@@H](NC(=O)[C@H](Cc1ccccc1)NC(=O)[C@@H](NC(=O)CNC(=O)[C@H](CCC(N)=O)NC(=O)C(C)(C)NC(=O)[C@@H](N)Cc1c[nH]cn1)[C@@H](C)O)[C@@H](C)O)C(C)C)[C@@H](C)O)C(C)C)C(=O)N[C@@H](CCC(=O)O)C(=O)N[C@@H](C)C(=O)NCC(=O)O
B4: Peptide 452 (peptide)
peptide: H[Aib]QGTFTSDVSK[αMeF]LDKK([AEEA-AEEA-γGlu-C20 diacid])RALDFVRWLL[Aib]E-NH2
modifications: N-terminus assumed
SMILES: CC(C)C[C@H](NC(=O)[C@H](C)NC(=O)[C@H](CCCNC(=N)N)NC(=O)[C@H](CCCCNC(=O)COCCOCCNC(=O)COCCOCCNC(=O)CC[C@H](NC(=O)CCCCCCCCCCCCCCCCCCC(=O)O)C(=O)O)NC(=O)[C@H](CCCCN)NC(=O)[C@H](CC(=O)O)NC(=O)[C@H](CC(C)C)NC(=O)[C@](C)(Cc1ccccc1)NC(=O)[C@H](CCCCN)NC(=O)[C@H](CO)NC(=O)[C@@H](NC(=O)[C@H](CC(=O)O)NC(=O)[C@H](CO)NC(=O)[C@@H](NC(=O)[C@H](Cc1ccccc1)NC(=O)[C@@H](NC(=O)CNC(=O)[C@H](CCC(N)=O)NC(=O)C(C)(C)NC(=O)[C@@H](N)Cc1c[nH]cn1)[C@@H](C)O)[C@@H](C)O)C(C)C)C(=O)N[C@@H](CC(=O)O)C(=O)N[C@@H](Cc1ccccc1)C(=O)N[C@H](C(=O)N[C@@H](CCCNC(=N)N)C(=O)N[C@@H](Cc1c[nH]c2ccccc12)C(=O)N[C@@H](CC(C)C)C(=O)N[C@@H](CC(C)C)C(=O)NC(C)(C)C(=O)N[C@@H](CCC(=O)O)C(N)=O)C(C)C
B5: Peptide 455 (peptide)
peptide: H[Aib]QGTFTSDVSK[αMeF]LDKK([AEEA-AEEA-γGlu-γGlu-C20 diacid])RAQDFVRWLL[Aib]E-NH2
modifications: N-terminus assumed
SMILES: CC(C)C[C@H](NC(=O)[C@H](Cc1c[nH]c2ccccc12)NC(=O)[C@H](CCCNC(=N)N)NC(=O)[C@@H](NC(=O)[C@H](Cc1ccccc1)NC(=O)[C@H](CC(=O)O)NC(=O)[C@H](CCC(N)=O)NC(=O)[C@H](C)NC(=O)[C@H](CCCNC(=N)N)NC(=O)[C@H](CCCCNC(=O)COCCOCCNC(=O)COCCOCCNC(=O)CC[C@H](NC(=O)CC[C@H](NC(=O)CCCCCCCCCCCCCCCCCCC(=O)O)C(=O)O)C(=O)O)NC(=O)[C@H](CCCCN)NC(=O)[C@H](CC(=O)O)NC(=O)[C@H](CC(C)C)NC(=O)[C@](C)(Cc1ccccc1)NC(=O)[C@H](CCCCN)NC(=O)[C@H](CO)NC(=O)[C@@H](NC(=O)[C@H](CC(=O)O)NC(=O)[C@H](CO)NC(=O)[C@@H](NC(=O)[C@H](Cc1ccccc1)NC(=O)[C@@H](NC(=O)CNC(=O)[C@H](CCC(N)=O)NC(=O)C(C)(C)NC(=O)[C@@H](N)Cc1c[nH]cn1)[C@@H](C)O)[C@@H](C)O)C(C)C)C(C)C)C(=O)N[C@@H](CC(C)C)C(=O)NC(C)(C)C(=O)N[C@@H](CCC(=O)O)C(N)=O
B6: Peptide 450 (peptide)
peptide: H[Aib]QGTFTSDVSK[αMeF]LDKK([AEEA-AEEA-γGlu-γGlu-C18 diacid])RAQDFVRWLLE[Aib]G-OH
modifications: N-terminus assumed
SMILES: CC(C)C[C@H](NC(=O)[C@H](Cc1c[nH]c2ccccc12)NC(=O)[C@H](CCCNC(=N)N)NC(=O)[C@@H](NC(=O)[C@H](Cc1ccccc1)NC(=O)[C@H](CC(=O)O)NC(=O)[C@H](CCC(N)=O)NC(=O)[C@H](C)NC(=O)[C@H](CCCNC(=N)N)NC(=O)[C@H](CCCCNC(=O)COCCOCCNC(=O)COCCOCCNC(=O)CC[C@H](NC(=O)CC[C@H](NC(=O)CCCCCCCCCCCCCCCCC(=O)O)C(=O)O)C(=O)O)NC(=O)[C@H](CCCCN)NC(=O)[C@H](CC(=O)O)NC(=O)[C@H](CC(C)C)NC(=O)[C@](C)(Cc1ccccc1)NC(=O)[C@H](CCCCN)NC(=O)[C@H](CO)NC(=O)[C@@H](NC(=O)[C@H](CC(=O)O)NC(=O)[C@H](CO)NC(=O)[C@@H](NC(=O)[C@H](Cc1ccccc1)NC(=O)[C@@H](NC(=O)CNC(=O)[C@H](CCC(N)=O)NC(=O)C(C)(C)NC(=O)[C@@H](N)Cc1c[nH]cn1)[C@@H](C)O)[C@@H](C)O)C(C)C)C(C)C)C(=O)N[C@@H](CC(C)C)C(=O)N[C@@H](CCC(=O)O)C(=O)NC(C)(C)C(=O)NCC(=O)O
B7: Peptide 456 (peptide)
peptide: H[Aib]QGTFTSDVSK[αMeF]LDRK([AEEA-AEEA-γGlu-C20 diacid])RAQDFVRWLL[Aib]E-NH2
modifications: N-terminus assumed
SMILES: CC(C)C[C@H](NC(=O)[C@H](Cc1c[nH]c2ccccc12)NC(=O)[C@H](CCCNC(=N)N)NC(=O)[C@@H](NC(=O)[C@H](Cc1ccccc1)NC(=O)[C@H](CC(=O)O)NC(=O)[C@H](CCC(N)=O)NC(=O)[C@H](C)NC(=O)[C@H](CCCNC(=N)N)NC(=O)[C@H](CCCCNC(=O)COCCOCCNC(=O)COCCOCCNC(=O)CC[C@H](NC(=O)CCCCCCCCCCCCCCCCCCC(=O)O)C(=O)O)NC(=O)[C@H](CCCNC(=N)N)NC(=O)[C@H](CC(=O)O)NC(=O)[C@H](CC(C)C)NC(=O)[C@](C)(Cc1ccccc1)NC(=O)[C@H](CCCCN)NC(=O)[C@H](CO)NC(=O)[C@@H](NC(=O)[C@H](CC(=O)O)NC(=O)[C@H](CO)NC(=O)[C@@H](NC(=O)[C@H](Cc1ccccc1)NC(=O)[C@@H](NC(=O)CNC(=O)[C@H](CCC(N)=O)NC(=O)C(C)(C)NC(=O)[C@@H](N)Cc1c[nH]cn1)[C@@H](C)O)[C@@H](C)O)C(C)C)C(C)C)C(=O)N[C@@H](CC(C)C)C(=O)NC(C)(C)C(=O)N[C@@H](CCC(=O)O)C(N)=O

What follows are binders tested against human glucagon receptor (human, UniProt P47871) (assay: cell-based or functional assay).

Row | cAMP production EC50 [nM] | Binder
1 | 0.503 | B1
2 | 0.274 | B2
3 | 0.0892 | B3
4 | 0.151 | B4
5 | 0.114 | B5
6 | 0.0578 | B6
7 | 0.0803 | B7
8 | 0.0665 | H[Aib]QGTFTSDVSK[αMeF]LDKK([AEEA-AEEA-γGlu-C20 diacid])RAQDFVRWLLAE-NH2 [Peptide 460]
9 | 0.162 | H[Aib]QGTFTSDVSK[αMeF]LDKK([AEEA-AEEA-γGlu-C20 diacid])RAQDFVRWLLE[Aib]G-NH2 [Peptide 453]

Each binder was assayed against human GLP-1 receptor (human, UniProt P43220) (assay: cell-based or functional assay).

Row | cAMP production EC50 [nM] | Binder
10 | 0.895 | B1
11 | 0.173 | B2
12 | 0.0395 | B3
13 | 0.495 | B4
14 | 0.127 | B5
15 | 0.0573 | B6
16 | 0.133 | B7
17 | 0.117 | H[Aib]QGTFTSDVSK[αMeF]LDKK([AEEA-AEEA-γGlu-C20 diacid])RAQDFVRWLLAE-NH2 [Peptide 460]
18 | 0.17 | H[Aib]QGTFTSDVSK[αMeF]LDKK([AEEA-AEEA-γGlu-C20 diacid])RAQDFVRWLLE[Aib]G-NH2 [Peptide 453]
